This note sets out measurements from US20240376149A1, “Novel Modulators of GABABR1a” (VIB VZW, priority 2021, published 2024).

Test [1] deals with acute mouse hippocampal slices, CA3-CA1 Schaffer collateral (SC) synapses. In words: Ex vivo fEPSP short-term facilitation in acute hippocampal slices (multi-electrode array). It counts as cell-based. As to the method:
The effect of a selection of GABABR1a-SD1 binders on synaptic transmission was tested in an ex vivo experiment using acute mouse hippocampal slices comprising an intact circuit of CA3-CA1 Schaffer collateral (SC) synapses. In short, a burst of 5 stimuli at 20 Hz was applied to Schaffer collaterals to induce short-term facilitation, which inversely correlates with the probability of neurotransmitter release.
Recordings were done in C57BL/6J mice (2 months old). For tissue preparation, mice were anesthetized with isoflurane and rapidly decapitated to prepare acute 300 μm-thick parasagittal brain slices on a Leica VT1200 vibratome. Slicing was performed in cold sucrose based cutting solution (ACSF) that consisted of (in mM): 87 NaCl, 2.5 KCl, 1.25 NaH2PO4, 10 glucose, 25 NaHCO3, 0.5 CaCl2, 7 MgCl2, 75 sucrose, 1 kynurenic acid, 5 ascorbic acid, 3 pyruvic acid (pH 7.4 with 5% CO2/95% O2). Slices were allowed to recover at 34° C. for 35 min, and subsequently maintained at room temperature for at least 30 min before use. Before recordings, slices were preincubated in artificial cerebrospinal fluid (ACSF, 119 mM NaCl, 2.5 mM KCl, 1 mM NaH2PO4, 11 mM glucose, 26 mM NaHCO3, 4 mM MgCl2 and 4 mM CaCl2, pH 7.4) containing peptide of interest or scrambled/control peptide (1 or 10 uM). Preincubation was performed in the multielectrode array recording chamber (60MEA200/30iR-Ti-gr, Multichannel Systems) for 60 min at 32° C., using custom-made local carbogenation rings (5% CO2/95% 02). Field excitatory post-synaptic potentials (fEPSPs) were recorded from Schaffer collateral-CA1 synapses by stimulating and recording from the appropriate (visually identified) electrodes (MEA-2100, Multichannel Systems). Input-output curves were recorded for each slice by applying single-stimuli ranging from 500 to 2750 mV with 250 mV increments. […] Train stimulations of 10, 20 and 50 Hz (5 stimuli per train) were recorded with 10 minutes intervals. Recordings were processed and analysed using Multi Channel Experimenter software (Multi Channel Systems).

Test [2] addresses GABABR1b expressed on cells (UniProt Q9UBS5-2 30-474, limits assumed). In words: cell-based binding assay, flow cytometry. Background: Flow cytometry measures light scatter and fluorescence of single cells or particles in a stream.
Test [3] concerns the target T1, Sushi domain 1 of the human GABA B1a receptor (human, UniProt Q9UBS5 26-96).
T1 construct: Purified recombinant protein from E. coli; also called SD1; GABABR1a-SD1
In words: fluorescence polarization, SD1 titrated against 1.2 µM FITC-9mer; concentration is that of SD1. In general terms: Fluorescence polarisation rises when a labelled molecule tumbles more slowly, as on binding a larger partner.

Test [4] deals with T1, Sushi domain 1 of the human GABA B1a …. Nature of the test: fluorescence polarization, SD1 titrated against 3.7 µM FITC-9mer; concentration is that of SD1.
For test [5] the target is unchanged. Nature of the test: fluorescence polarization, SD1 titrated against 0.05 µM FITC-9mer; concentration is that of SD1.
For test [6] the target is unchanged. In words: fluorescence polarization, SD1 titrated against 0.14 µM FITC-9mer; concentration is that of SD1.
For test [7] the target is unchanged. In words: fluorescence polarization, SD1 titrated against 0.41 µM FITC-9mer; concentration is that of SD1.
The target is the same in test [8]. Nature of the test: fluorescence polarization, SD1 titrated against 11.11 µM FITC-9mer; concentration is that of SD1.
Test [9] has the same target. Nature of the test: FP competition vs FITC-9mer on purified SD1; 17-mer. As to the method: Intrigued by the surprising results of the 5-mer, it was decided to set up a medium- to high-throughput screen to optimize the 5-mer sequence. Several assays were tested to find a reproducible, robust and cost-effective assay that is also suitable for high-throughput screening. A fluorescence polarization (FP) assay was selected. FP measurements are well-known for receptor binding assays. The assay is based on the rotational movement of fluorescently labelled molecules in solution. […] The FP assay was optimized using the FITC labelled sAPP 9-mer (FIG. 1).
(§1) To screen for GABABR1a binders using unlabelled test compounds, the assay was turned into a competition assay using FITC-9mer. […] To validate this inhibitor assay, the IC50 values were determined of the 17-mer, 9-mer, 5-mer as well as those from 3 negative controls: 10-mer, scrambled 17-mer and a scrambled 9-mer (FIG. 2).

Test [10] shares this target. In words: ITC, peptide titrated into purified SD1. As for the experimental part:
First, we wondered whether the wild-type sAPP 9-mer peptide would be the optimal sequence in terms of SD1 binding or whether sequence variants of the sAPP 9-mer would have improved binding to the GABABR1a-SD1. Therefore a panel of single and double sAPP 9-mer mutants was generated. An alanine scan was performed for the residues on position 1 to position 7. Based on an ITC assay, these single mutant peptides bound the SD1 with the same or slightly higher Kd (Table 1). Also the double mutants VIB_P04, VIB_P05 and VIB_P19 bound with a similar Kd to SD1 compared to the wild-type 9-mer. We have also tested the effect of the D-isomer of the amino residues on position 1 to 4, in single or multiple combinations. None of the mutations had strong effects on the measured Kd (Table 1). We therefore conclude that the wild-type sAPP 9-mer is already optimized but that many variants bind as good to SD1 and thus will modulate GABABR1a in a similar manner.
The Sushi-1 protein was dialysed overnight to PBS buffer and diluted to 30 μM in the same buffer. The peptides were resuspended in PBS at a stock concentration of 3 mM and diluted further in the same buffer to 300 μM. ITC experiments were performed on a Microcal ITC200 device. Titrations comprised 26×1.5 μL injections of peptide into protein, with 90 s intervals. An initial injection of ligand (0.5 μL) was made and discarded during data analysis. The data were fitted to a single binding site model using the Microcal LLC ITC₂₀₀. Original software provided by the manufacturer.
On the technique in general: ITC needs no label: the signal is the heat of the interaction.

The target is the same in test [11]. Nature of the test: FP competition vs FITC-9mer on purified SD1; 9-mer. As to the method:
as §1
To determine if the peptides of this application were able to disrupt the SD1-9-mer complex, each peptide (in single point or dose-response curve) tested was incubate with SD1 protein for 1 h at RT. After this initially incubation, FITC-9mer was added to the previous mix and incubated during 2 h at RT. The signal intensity was measure in an appropriate plate reader using the following settings: Number of flashes per well: 200; Excitation: F482-16; Dichroic filter: FLP 504; Emission A F530-40; Gain A: 738, Gain B: 736. The assay was conducted in a 384-well plate.

Where no end group is shown, it is not given here.

T1 sequence (Q9UBS5 26-96 limits assumed): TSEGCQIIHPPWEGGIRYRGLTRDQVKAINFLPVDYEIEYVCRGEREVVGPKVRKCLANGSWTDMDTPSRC
GABABR1b expressed on cells, sequence (Q9UBS5 other isoform, or with tags, fused parts or gaps limits assumed): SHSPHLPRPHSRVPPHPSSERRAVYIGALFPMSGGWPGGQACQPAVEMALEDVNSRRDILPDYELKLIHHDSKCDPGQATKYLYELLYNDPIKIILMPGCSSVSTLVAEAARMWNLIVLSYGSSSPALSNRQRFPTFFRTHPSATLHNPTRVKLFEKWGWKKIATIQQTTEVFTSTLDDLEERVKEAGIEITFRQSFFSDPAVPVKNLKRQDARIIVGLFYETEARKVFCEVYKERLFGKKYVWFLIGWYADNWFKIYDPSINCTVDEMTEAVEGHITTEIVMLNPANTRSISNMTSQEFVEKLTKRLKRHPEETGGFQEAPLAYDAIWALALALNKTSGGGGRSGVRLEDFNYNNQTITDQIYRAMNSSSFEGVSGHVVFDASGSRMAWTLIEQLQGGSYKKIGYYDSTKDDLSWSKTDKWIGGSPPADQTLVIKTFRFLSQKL

Regarding “DDSDVWWGGADTDYADG [Peptide 17-mer, DDSDVWWGGADTDYADG]”, in test [1] (peptide 1 μM, vs scrambled control peptide, burst of 5 stimuli at 20 Hz, listed as sAPP 17-mer), the “Ex vivo assay 1 μM (short-term facilitation)” value is reported as “increased the facilitation”. The “Increase in facilitation after preincubation with GABABR antagonist CGP-54626” value in test [1] (peptide 1 μM, CGP-54626 10 μM preincubation) is listed as “blocked”. Further, the “Ex vivo assay 10 μM (short-term facilitation)” value in test [1] (peptide 10 μM, vs scrambled negative control at 10 μM) is listed as “statistically significant increase in short-term facilitation”.

For the molecule DDSDVWWGG (also: biotin tag, site not given here, also called biotin-9mer; biotion-9mer) [9-mer tagged with Biotin], the binding result in test [2] is reported as “no binding”.

Consider DDSDVWWGG (also: FITC label, site not given here, also called FITC-9mer) [FITC labelled sAPP 9-mer], for which the “EC50 (read off the curve)” value in test [3] was ~2 µM; in test [4], ~4 µM; in test [5], ~0.8 µM; in test [6], ~1 µM; in test [7], ~1 µM; in [8], ~8 µM.

On to DDSDVWWGGADTDYADG [wild-type sAPP 17-mer], for which, in test [9], the half-inhibitory concentration (IC50) was found to be 1.7 µM. This lies in the single-digit micromolar range.

In the case of DDSDVWWGG (Unlabelled) [wild-type sAPP 9-mer], the dissociation constant (Kd) in test [10] stood at 3 µM. This molecule yielded an IC50 in test [11] of 11 µM.

The term EC50 (read off the curve) denotes the concentration giving half of the maximal effect. A low value points to a more potent agent. Broadly, the IC50 is the concentration needed to halve the response being measured. Low readings indicate higher potency, high ones lower potency. For orientation: Kd means the equilibrium constant for the complex coming apart.
